Tests used:
purified protein [1] = substrate: O=c1cc(-c2ccc(O)cc2)oc2cc(O)cc(O)c12; assay: purified protein; settings: CYP:Pdx:PdR 1:8:2 (P. putida redox partners; CYP 1 µM), 500 µM NADH, phosphate buffer; 3'-hydroxylation
purified protein [2] = substrate: O=C1C[C@@H](c2ccc(O)cc2)Oc2cc(O)cc(O)c21; assay: purified protein; settings: CYP:Pdx:PdR 1:8:2 (P. putida redox partners; CYP 1 µM), 500 µM NADH, phosphate buffer; 3'-hydroxylation

B1: CYP101D5 (Sphingomonas echinoides) (protein)
chain: MSAAEEIHTPRPAHVPADRVVELDMYNPQGIEKGYLEAWTSLQTADLPSMVWTPLNGGHWIATRGELIQDIYCDPDHFSSHVIFIPKAAGEKYAMVPSKMDPPEHRPYREVVDKGLNLRAIREREPAVRAHAIALIEAFADKGHCDFVEEFSGEFPIRVFMMMADLPMEDSPKLRAFAAGMTRPEGNTPTEMADALDRANRSFFDYVSPIIDARMGGDGTDILTLSINSQVNGAPMEREKLLGMVSLLLLAGLDTVTNFLNMTMDYLGRHPDKVRELTENPTEIRRGVEELFRRFPLVAAARMVAHDVERDGVELKQGEMVLLPTALHGLDPRVNADPWEVDFQRKRPAHSTFGNGPHRCAGLHLARLETTVMLEEWLKRIPTFRVVPGTGPTYHSGVVASVDGVRLEW
Km (purified protein [1]): 46.28 ± 4.88 µM
kcat (purified protein [1]): 0.0138 s⁻¹
Km (purified protein [2]): 26.39 ± 2.23 µM
kcat (purified protein [2]): 0.0195 s⁻¹

— paper PMC9655578
